Substitutions are numbered along the chain they refer to. In names and notes the source's numbering stands.
B1: LCP0123 (VHH)
VHH: EVQLVESGGGLVQAGGSLTLSCAMSGGTRPFEDYVMAWFRQATGKEREFVATITWMGETTYYKDSVNGRFAISRDNAENTVALQMNSLEPEDTAVYFCAAHSRSSFSTSGGRYNPRPTEYDYWGQGTQVTVSS
notes: llama anti-C5 VHH, tested as VHH-His fusion; not shown: His-tag
B2: LCP0146 (VHH)
VHH: EVQLVESGGGLVQAGGSLRLSCAASGRAFSDYAMAWFRQAPGKEREFVAGIGWSGGDTLYADSVRGRFTNSKDNAKNRMSLQMNSLKPEDTAVYYCAARQGQYIYSSMRSDSYDYWGQGTQVTVSS
notes: as for B1
B3: LCP0296 (VHH)
VHH: EVQLVESGGGVVQAGDSLTLTCTAPVGTISDYGMGWFRQAPGKEREFVASISWGGMWTDYADSVKGRFTISRDNDKNAVYLRMNSLNAEDTAVYYCGRGRMYRGIGNSLAQPKSYGYWGQGTQVTVSS
notes: as for B1
B4: LCP0095 (VHH)
VHH: EVQLVESGGGLVQAGGSLRLSCTASGRTISTTVMAWFRQAPGKEREFVAADHWGDAGTVYADSVKGRFTISRDNAKNTVYLQMNYLKPEDTSVYYCAARPPTYVGTSRDSRAYDYWGQGTQVTVSS
notes: as for B1
B5: LCP0115 (VHH)
VHH: EVQLVESGGGLVQAGGSLRLSCAASGRTFSGILSPYAVGWFRQAPGKGREFVSTITSGGSAIYTDSVKGRFTLSRDNAKDTVYLQMNSLKPEDTAVYYCAVRTRRYGSNLGEVPQENEYGYWGQGTQVTVSS
notes: as for B1
B6: LCP0302 (VHH)
VHH: EVQLVESGGGLVQAGGSLRLSCAASGRTFSGILSAYAVGWFRQAPGKEREFVSTITSGGSTLSADSVKGRFTLSRDNAKDTVYLQMNSLKPEDTAVYYCAVRTWPYGSNRGEVPTENEYGHWGQGTQVTVSS
notes: as for B1
B7: LCP0136 (VHH)
VHH: EVQLVESGGGLVQPGESLRLSCAISGFAFTDVGMSWVRQAPGKGLEWVSSISSGSSITTYSDSVKGRFTISRDNARNTLFLQMNSLKPEDTAVYYCGRYYCTGLGCHPRRDSALWGQGTQVTVSS
notes: as for B1
B8: LCP0143 (VHH)
VHH: EVQLVESGGGLVQAGGSLRLSCAAPEMGATINVMAWYRQAPGKQRELVARLPLDNNIDYGDFAKGRFTISRDITRNTVYLQMNNLKPDDTAVYYCNVLLSRQINGAYVHWGQGTQVTVSS
notes: as for B1
B9: CRL0499 (bispecific antibody)
chain: EVQLLESGGGLVQPGGSLRLSCAASGFTFRSFGMSWVRQAPGKGPEWVSSISGSGSDTLYADSVKGRFTISRDNSKNTLYLQMNSLRPEDTAVYYCTIGGSLSRSSQGTLVTVSSGGGGSGGGGSGGGGSEVQLVESGGGLVQPGGSLRLSCAASGRAHSDYAMAWFRQAPGQEREFVAGIGWSGGDTLYADSVRGRFTNSRDNSKNTLYLQMNSLRAEDTAVYYCAARQGQYIYSSMRSDSYDYWGQGTLVTVSS
notes: anti-albumin VHH / (G4S)3 / anti-C5 VHH fusion, purified by Protein A; also called CRL0499 (HSA/C5)
B10: CRL0483 (bispecific antibody)
chain: EVQLVESGGGLVQPGGSLRLSCAASGRTFSGILSPYAVGWFRQAPGKGLEFVSTITSGGSAIYTDSVKGRFTISRDNAKDSLYLQMNSLRAEDTAVYYCAVRTRRYGSNLGEVPQENEYGYWGQGTLVTVSSGGGGSGGGGSGGGGSEVQLLESGGGLVQPGGSLRLSCAASGFTFRSFGMSWVRQAPGKGPEWVSSISGSGSDTLYADSVKGRFTISRDNSKNTLYLQMNSLRPEDTAVYYCTIGGSLSRSSQGTLVTVSS
notes: anti-C5 VHH / (G4S)3 / anti-albumin VHH fusion, purified by Protein A; also called CRL0483 (C5/HSA)
B11: HAS080 (VHH)
VHH: QVRLAESGGGRVQAGESLRLSCVASGRTFSNDAAGWFREASGKEREFVASISWSGNYTYYADSVKGRFTISEDNVKNTVYLQMTSLKPEDTAVYYCAAGNRYSDYRISLVTPRLYEYWGQGTQVTVSH
notes: anti-albumin VHH-His
B12: HAS020 (VHH)
VHH: QVQLVESGGGLVQAGGSLRLSCAASGRTFGSDAAGWFRQASGKEREFVASISWSGGYTYYADSVKGRFTISSDNVKNTVYLQMNSLTPEDTAVYFCATGNRYSDYRISLVTPSQYEYWGQGTLVTVSH
notes: anti-albumin VHH-His
B13: HAS096 (VHH)
VHH: B12 VHH with I70S, G99V, L123Q
notes: anti-albumin VHH-His
B14: HAS093 (VHH)
VHH: B12 VHH with V64G, E116D, L123Q
notes: anti-albumin VHH-His
B15: HAS091 (VHH)
VHH: B12 VHH with V64G, K65T, Y102D, L123Q
notes: anti-albumin VHH-His
B16: HAS081 (VHH)
VHH: B12 VHH with G30S, S50A, G56N, Y60S, T87K, F95L, T98A, L123Q
notes: anti-albumin VHH-His
B17: HAS038 (VHH)
VHH: QVQLVESGGGLVQPGGSLRLSCTGSGHSFSTYTVGWFRQAPGEERKFVASISWSGEVTLYGDSVKGRFTISRDNRKKTVYLQMHSLKPEDSAIYYCAAKRGGRPTDSSDDYFYWGQGTQVTVSS
notes: anti-albumin VHH-His
B18: HAS044 (VHH)
VHH: QVQLVESGGGLVQAGGSLRLSCAASGRTFSSYAIGWFRQAPGKAREFVARVSTIAGDTDYADSVKGRFTISRDNAKNTVYLQMNSLKPEDTAVYYCAADSYNVRLVTGEADYWGEGTQVTVSS
notes: anti-albumin VHH-His
B19: HAS077 (VHH)
VHH: B18 VHH with V106G
notes: anti-albumin VHH-His
B20: HAS079 (VHH)
VHH: B18 VHH with Q1E, G16D, R27F, S31N, D62N, S63A, E89D, D99E
notes: anti-albumin VHH-His
B21: HAS040 (VHH)
VHH: QVQLNESGGGMVQAGGSLRLSCAASGRTVSNYAAGWFRQAPGKEREFVAAINWNKTTTYADSVKGRFIISREYAKNTVALQMNSLKPEDTAVYYCAAVFRIVAPKTQYEYDYWGQGTQVTVSS
notes: anti-albumin VHH-His; also called HAS40
B22: HAS041 (VHH)
VHH: QVQLIESGGGLVQAGGSLGLSCAASGRPVSNYAAAWFRQAPGKEREFVAAINWNKTATYADSVKGRFTISRDNAKSTVALQMNSLKPEDTAVYYCAAVFRVVAPKTQYDYDYWGQGTQVTVSS
notes: anti-albumin VHH-His; also called HAS41
B23: MSA21 VHH domain (VHH)
VHH: QVQLQESGGGLVQPGGSLRLSCEASGFTFSRFGMTWVRQAPGKGVEWVSGISSLGDSTLYADSVKGRFTISRDNAKNTLYLQMNSLKPEDTAVYYCTIGGSLNPGGQGTQVTVSS
notes: Published comparator (WO 2004/062551 A2); also called ADL021

Each binder was assayed against T1, human complement protein C5 (human, UniProt P01031 19-1676) (assay: SPR (Biacore)).
T1 construct: Native C5 is a two-chain protein made from one precursor; also called hC5; human C5

| Kd [nM] | koff [s⁻¹] | kon [M⁻¹ s⁻¹] | Binder |
| --- | --- | --- | --- |
| 1.99 | 0.000216 | 108000 | B1 |
| 0.0435 | 9.75e-05 | 2.24e+06 | B2 |
| 0.417 | 3.9e-05 | 93400 | B3 |
| 2.5 | 0.000714 | 286000 | B4 |
| 0.309 | 3.48e-05 | 113000 | B5 |
| 0.195 | 2.22e-05 | 114000 | B6 |
| 1.81 | 0.000882 | 486000 | B7 |
| 0.082 | 5.66e-05 | 691000 | B8 |

These binders were tested against T2, cynomolgus monkey (cyno) complement protein C5 (cynomolgus monkey, UniProt A0A2K5U1T1 19-1676) (assay: SPR (Biacore)).
T2 construct: also called cC5; cyno C5

| Kd [nM] | koff [s⁻¹] | kon [M⁻¹ s⁻¹] | Binder |
| --- | --- | --- | --- |
| 3.8 | 0.000381 | 100000 | B1 |
| 0.0922 | 0.000244 | 2.64e+06 | B2 |
| 1.55 | 0.000106 | 68400 | B3 |
| 3.69 | 0.00168 | 456000 | B4 |
| 0.107 | 1.02e-05 | 95300 | B5 |
| 0.232 | 2.38e-05 | 103000 | B6 |
| 0.318 | 0.000251 | 789000 | B7 |
| 0.167 | 0.000124 | 741000 | B8 |

What follows are binders tested against T1, human complement protein C5 (assay: SPR (Biacore), pH 6.0).

| Kd [nM] | koff [s⁻¹] | kon [M⁻¹ s⁻¹] | Binder |
| --- | --- | --- | --- |
| 0.448 | 0.00112 | 2.51e+06 | B9 |
| 5.27 | 0.000211 | 40000 | B10 |

The binders below were run against T2, cynomolgus monkey (cyno) complement … (assay: SPR (Biacore), pH 6.0).

| Kd [nM] | koff [s⁻¹] | kon [M⁻¹ s⁻¹] | Binder |
| --- | --- | --- | --- |
| 2.02 | 0.00388 | 1.92e+06 | B9 |
| 1.25 | 4.62e-05 | 37100 | B10 |

These binders were tested against T1, human complement protein C5 (assay: SPR (Biacore), pH 7.4).

| Kd [nM] | koff [s⁻¹] | kon [M⁻¹ s⁻¹] | Binder |
| --- | --- | --- | --- |
| 0.15 | 0.000332 | 2.22e+06 | B9 |
| 1.07 | 0.000242 | 225000 | B10 |

What follows are binders tested against T2, cynomolgus monkey (cyno) complement … (assay: SPR (Biacore), pH 7.4).

| Kd [nM] | koff [s⁻¹] | kon [M⁻¹ s⁻¹] | Binder |
| --- | --- | --- | --- |
| 0.24 | 2.2e-05 | 91500 | B10 |

These binders were tested against T3, human serum albumin (human, UniProt P02768 25-609) (assay: BLI (Octet HTX), VHH-His on Penta-His sensors, 100 nM albumin).
T3 construct: also called HSA; human albumin
Description: VHH sequences were first analyzed by SDS-PAGE and Coomassie staining to determine approximate concentration relative to a known standard. Supernatant concentrations were then normalized and subjected to biolayer interferometry on an Octet HTX (Pall/ForteBio). Penta-His sensors were exposed to kinetics buffer for 60 seconds to establish baseline measurements. The sensors were then loaded with VHH-His containing supernatants for 300 seconds before a second baseline was established in kinetics buffer over 120 seconds. Tips were then incubated with 100 nM HSA or CSA in kinetics buffer for 600 seconds and dissociation measured over an additional 600 seconds.

| binding result | Binder |
| --- | --- |
| binds | B11 |
| binds | B12 |
| binds | B13 |
| binds | B14 |
| binds | B15 |
| binds | B16 |
| binds | B17 |
| binds | B18 |
| binds | B19 |
| binds | B20 |

What follows are binders tested against T3, human serum albumin (assay: SPR (Biacore 3000), biotinylated albumin on CAP chip, pH 6.0).
Protocol: (§1) Biotinylated albumin was captured onto a CAP chip saturated with Biotin CAPture reagent containing deoxyribooligonucleotides (obtained from GE Healthcare). Concentrations of purified VHH domains were injected for 5 minutes at a flowrate of 50 μL/min. Three concentrations were assessed per VHH domain. Bound analyte was allowed to dissociate for 600 seconds. The chip surface was regenerated after each concentration by injecting 6 M guanidine HCl/0.25 M NaOH for 2 minutes at 10 μL/min. Kinetics were determined at pH 7.4 and pH 6.0 in HBS-EP buffer using a 1:1 Langmuir model (local Rₘₐₓ and constant RI) and double reference subtraction (subtraction of a buffer concentration cycle from the sample concentration cycle and subtraction of a parallel reference flow cell).

| Kd [nM] | koff [s⁻¹] | kon [M⁻¹ s⁻¹] | Binder |
| --- | --- | --- | --- |
| 0.466 | 0.000208 | 445000 | B21 |
| 1.04 | 0.000387 | 373000 | B22 |
| 5.46 | 0.00181 | 330000 | B23 |

What follows are binders tested against T4, Cynomolgus monkey serum albumin (cynomolgus monkey, UniProt A2V9Z4 25-608) in the same assay as above.
T4 construct: also called CSA; cynomolgus albumin
Protocol: as §1

| Kd [nM] | koff [s⁻¹] | kon [M⁻¹ s⁻¹] | Binder |
| --- | --- | --- | --- |
| 0.764 | 0.000281 | 368000 | B21 |
| 2.37 | 0.000739 | 312000 | B22 |
| 5.47 | 0.00153 | 280000 | B23 |

These binders were tested against T3, human serum albumin (assay: SPR (Biacore 3000), biotinylated albumin on CAP chip, pH 7.4).
Protocol: as §1

| Kd [nM] | koff [s⁻¹] | kon [M⁻¹ s⁻¹] | Binder |
| --- | --- | --- | --- |
| 0.341 | 0.00044 | 1.29e+06 | B21 |
| 0.461 | 0.000566 | 1.23e+06 | B22 |
| 3.49 | 0.00393 | 1.13e+06 | B23 |

These binders were tested against T4, Cynomolgus monkey serum albumin in the same assay as above.
Protocol: as §1

| Kd [nM] | koff [s⁻¹] | kon [M⁻¹ s⁻¹] | Binder |
| --- | --- | --- | --- |
| 0.539 | 0.000562 | 1.04e+06 | B21 |
| 1.15 | 0.00123 | 1.07e+06 | B22 |
| 3.85 | 0.00216 | 561000 | B23 |
